Laboratory results published in paper PMC3953818, “Characterization and regulation of an additional actin-filament-binding site in large isoforms of the stereocilia actin-bundling protein espin” (Journal of Cell Science, 2014).
Read-outs that look alike come from different tables or passages of the source. Values belong to the molecule of their own block, whether it stands above or below them.

Columns and labels:
F-actin [1] = biological target: F-actin (UniProt P68133); details: cited from earlier work
F-actin [2] = biological target: F-actin (UniProt P68133); details: cited from earlier work; remark: listed apart in the source
F-actin [3] = biological target: F-actin (UniProt P68133); details: cited from earlier work; remark: listed apart in the source
[4] = biological target: His-tagged ankyrin repeat domain (M1-R339 of human espin 1) (human) (UniProt B1AK53); experiment: pull-down; competition: the same pull-down of His–(1-339) on glutathione beads loaded with GST–(340-854), without or with synthetic peptide at 30 µM
monomeric actin (rabbit) = monomeric actin (rabbit) (UniProt P68135)
[5] = biological target: preformed filaments of rabbit skeletal muscle actin (rabbit) (UniProt P68135); experiment: co-sedimentation; purified GST fusion proteins incubated with preformed filaments of rabbit skeletal muscle actin (0.4 mg/ml) for 60 min at 37°C in 10 mM HEPES, 0.1 M KCl, 1 mM dithiothreitol, 0.5 mM ATP, 1 mM MgCl2, 1 mM NaN3, pH 7.4; 150,000 g for 60 min at 4°C; pellet and supernatant on Coomassie-stained SDS gels
[6] = biological target: T1, GST–(340-854) human espin 1 fragment missing the V462-K487 xAB-containing peptide (human, UniProt B1AK53 340-854, missing the V462-K487 xAB-containing peptide (ΔxAB)); experiment: pull-down; His-tagged ankyrin repeat domain incubated with glutathione-Sepharose beads preloaded with GST or GST–human espin 340–854 fragment in 5 mM HEPES, 10 mM imidazole, 0.1 M KCl, 1 mM dithiothreitol, 3 mM NaN3, pH 7.4, 60 min at 22°C; five washes at 4°C; Coomassie-stained SDS gels; details: both partners purified
T1 construct: human espin 1, residues D340-Y854 with V462-K487 deleted; also called ΔxAB; source: E. coli BL21 Star (DE3), purified (glutathione-Sepharose 4B), loaded on glutathione beads
T1 sequence (looked up): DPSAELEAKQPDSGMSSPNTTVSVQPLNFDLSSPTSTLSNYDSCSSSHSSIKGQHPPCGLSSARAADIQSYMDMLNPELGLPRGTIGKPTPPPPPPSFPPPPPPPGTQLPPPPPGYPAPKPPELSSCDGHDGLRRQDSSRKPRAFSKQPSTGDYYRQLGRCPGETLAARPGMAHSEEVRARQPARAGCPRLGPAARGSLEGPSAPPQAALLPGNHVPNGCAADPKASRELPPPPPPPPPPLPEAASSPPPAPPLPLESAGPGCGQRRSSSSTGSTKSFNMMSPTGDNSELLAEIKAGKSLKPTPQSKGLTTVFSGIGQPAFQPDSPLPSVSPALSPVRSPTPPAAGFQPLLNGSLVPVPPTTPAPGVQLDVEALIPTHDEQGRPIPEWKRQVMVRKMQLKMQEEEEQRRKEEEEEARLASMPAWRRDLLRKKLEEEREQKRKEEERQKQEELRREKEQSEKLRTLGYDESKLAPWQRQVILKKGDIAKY

percent of the His–ankyrin repeat domain still bound to GST–340-854 with 30 µM M3 [4]: 8%
Molecule: MYO3A tail homology domain I peptide (M3)

inhibition of the rate of pyrene-actin polymerization relative to the GST control, concentration series up to 5 µM (monomeric actin (rabbit)): 11%
percent of the fusion protein recovered in the high-speed pellet with F-actin [5]: 42%
Molecule: GST fusion with peptide V130-K155 of rat espin 2B (domain or fragment)

binding result [6]: binds
B1: His-tagged ankyrin repeat domain (M1-R339 of human espin 1) (domain or fragment, UniProt B1AK53 1-339, looked up)
chain: MALEQALQAARQGELDVLRSLHAAGLLGPSLRDPLDALPVHHAARAGKLHCLRFLVEEAALPAAARARNGATPAHDASATGHLACLQWLLSQGGCRVQDKDNSGATVLHLAARFGHPEVVNWLLHHGGGDPTAATDMGALPIHYAAAKGDFPSLRLLVEHYPEGVNAQTKNGATPLYLACQEGHLEVTQYLVQECGADPHARAHDGMTPLHAAAQMGHSPVIVWLVSCTDVSLSEQDKDGATAMHFAASRGHTKVLSWLLLHGGEISADLWGGTPLHDAAENGELECCQILVVNGAELDVRDRDGYTAADLSDFNGHSHCTRYLRTVENLSVEHRVLSR
notes: human espin 1, ankyrin repeat domain, residues M1-R339; Expressed from ProEX HTa or HTb; also called His–(1-339); His–ankyrin repeat domain; source: E. coli BL21 Star (DE3), purified (Ni-NTA agarose); not shown: His tag, N-terminal, kept

Further lines, the molecule ahead of its results:

Molecule: espin smallest isoform (from UniProt Q63618)
Kd (F-actin [1]): 220 nM

Molecule: espin 1 339-720 (from UniProt Q63618)
Kd (F-actin [2]): 1000 nM

Molecule: espin 1 ΔN338 ΔN338 (from UniProt Q63618)
Kd (F-actin [3]): 70 nM
